Source: publication PMC55327 (Genome Biology, 2001)

Tests used:
[1] = biological target: T1, *AatIβ (periplasmic aromatic aminotransferase) (Pseudomonas aeruginosa, UniProt Q9I0V2); experiment: aromatic aminotransferase activity assay; assay type: biochemical; settings: activity followed through purification
T1 sequence (Q9I0V2 29-374): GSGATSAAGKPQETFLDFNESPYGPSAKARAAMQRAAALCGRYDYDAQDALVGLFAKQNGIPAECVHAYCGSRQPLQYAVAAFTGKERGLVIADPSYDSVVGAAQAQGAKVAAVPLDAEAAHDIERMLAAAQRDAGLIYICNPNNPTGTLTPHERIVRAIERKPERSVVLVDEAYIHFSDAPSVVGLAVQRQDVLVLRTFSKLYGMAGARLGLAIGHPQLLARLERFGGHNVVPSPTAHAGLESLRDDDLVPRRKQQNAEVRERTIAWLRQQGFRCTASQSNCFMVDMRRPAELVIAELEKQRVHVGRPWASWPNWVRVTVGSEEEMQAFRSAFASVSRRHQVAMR

[2] = test system: C=C(O[C@@H]1C=C(C(=O)O)C=C[C@H]1O)C(=O)O; experiment: purified protein; assay type: biochemical, Pantoea agglomerans; settings: 32°C, 40–75 nM enzyme, 0.1 mg/ml bovine serum albumin
[3] = test system: C=C(O[C@@H]1C=C(C(=O)O)C=C[C@H]1O)C(=O)O; experiment: purified protein; assay type: biochemical, Salmonella enterica; settings: 32°C, 40–75 nM enzyme, 0.1 mg/ml bovine serum albumin
purified protein = substrate: C=C(O[C@@H]1C=C(C(=O)O)C=C[C@H]1O)C(=O)O; experiment: purified protein; assay type: biochemical, Pseudomonas aeruginosa; settings: 32°C, 40–75 nM enzyme, 0.1 mg/ml bovine serum albumin

O=C(O)CCC(=O)C(=O)O [α-ketoglutarate]
aromatic aminotransferase activity assay ([1]; co-substrate phenylalanine): phenylalanine and α-ketoglutarate were used as the substrates, unless indicated otherwise

N[C@@H](Cc1ccccc1)C(=O)O [phenylalanine]
aromatic aminotransferase activity assay ([1]; co-substrate α-ketoglutarate): phenylalanine and α-ketoglutarate were used as the substrates, unless indicated otherwise

*AroQ (Erwinia herbicola periplasmic chorismate mutase) (Pantoea agglomerans)
Km [2]: 169 µM | kcat [2]: 9.7 s⁻¹

*AroQ (Salmonella typhimurium periplasmic chorismate mutase) (Salmonella enterica subsp. enterica serovar Typhimurium)
Km [3]: 142 µM | kcat [3]: 8.9 s⁻¹

B1: *AroQ (Pseudomonas aeruginosa periplasmic chorismate mutase) (Pseudomonas aeruginosa PAO1) (protein)
chain: QPLSPALQQLLSLSSQRLQLADQVAQSKAQSGKAVQDSPREEQQLQMLAGQAGSHGVGAEQVRLLFAAQIEANKLVQYRLLSRPLPDAGQAVDLERIRSRLNQLNLELLRGYAPALAELRVDDCRPRLNQALQRQVRVDRLDELHAIALSRAAGDLCHWAEL
kcat (purified protein): 6.4 s⁻¹
